Results reported in patent publication US12618845B2, “Methods and compositions for protein sequencing” (Quantum-Si Incorporated, priority 2018, dated 2026).
Read-outs that look alike come from different tables or passages of the source.

System: peptide substrates
Assay type: biochemical

B1: VPr: Vibrio proteolyticus aminopeptidase (protein)
chain: MPPITQQATVTAWLPQVDASQITGTISSLESFTNRFYTTTSGAQASDWIASEWQALSASLPNASVKQVSHSGYNQKSVVMTITGSEAPDEWIVIGGHLDSTIGSHTNEQSVAPGADDDASGIAAVTEVIRVLSENNFQPKRSIAFMAYAAEEVGLRGSQDLANQYKSEGKNVVSALQLDMTNYKGSAQDVVFITDYTDSNFTQYLTQLMDEYLPSLTYGFDTCGYACSDHASWHNAGYPAAMPFESKFNDYNPRIHTTQDTLANSDPTGSHAKKFTQLGLAYAIEMGSATGDTPTPGNQ
Substrate AAMAAM{LYSN3}NH2 (SEQ ID NO: 74), 1 mM peptide, 2 mM enzyme, 2.5 mM ZnCl2, 25 mM Tris pH 8.0, 30° C./1 hr
  HPLC Assay Conv: 100%
Substrate AAPAAP{LYSN3}NH2 (SEQ ID NO: 98), 1 mM peptide, 2 mM enzyme, 2.5 mM ZnCl2, 25 mM Tris pH 8.0, 30° C./1 hr
  HPLC Assay Conv: 100%
Substrate AAPFQQ (SEQ ID NO: 118), 1 mM Peptide, 1 μM enzyme, 10 mM Mg(OAc)2, 50 mM MOPS pH 8, 60 mM KOAc, RT/0.5 hr
  HPLC Assay Conv: 100%
Substrate CCPFQQ (SEQ ID NO: 144), 1 mM Peptide, 1 μM enzyme, 10 mM Mg(OAc)2, 50 mM MOPS pH 8, 60 mM KOAc, RT/0.5 hr
  HPLC Assay Conv: 70%
Substrate DDPFQQ (SEQ ID NO: 126), 1 mM Peptide, 1 uM enzyme, 10 mM Mg(OAc)2, 50 mM MOPS pH 8, 60 mM KOAc, RT/0.5 hr
  HPLC Assay Conv: 0%
Substrate EEPFQQ (SEQ ID NO: 128), 1 mM Peptide, 1 uM enzyme, 10 mM Mg(OAc)2, 50 mM MOPS pH 8, 60 mM KOAc, RT/0.5 hr
  HPLC Assay Conv: 0%
Substrate FFPFFP{LYSN3}NH2 (SEQ ID NO: 94), 1 mM peptide, 2 mM enzyme, 2.5 mM ZnCl2, 25 mM Tris pH 8.0, 30° C./1 hr
  HPLC Assay Conv: 100%
Substrate FFPFQQ (SEQ ID NO: 124), 1 mM Peptide, 1 μM enzyme, 10 mM Mg(OAc)2, 50 mM MOPS pH 8, 60 mM KOAc, RT/0.5 hr
  HPLC Assay Conv: 100%
Substrate GGPFQQ (SEQ ID NO: 152), 1 mM Peptide, 1 μM enzyme, 10 mM Mg(OAc)2, 50 mM MOPS pH 8, 60 mM KOAc, RT/0.5 hr
  HPLC Assay Conv: 8%
Substrate HHPFQQ (SEQ ID NO: 154), 1 mM Peptide, 1 μM enzyme, 10 mM Mg(OAc)2, 50 mM MOPS pH 8, 60 mM KOAc, RT/0.5 hr
  HPLC Assay Conv: 12%
Substrate IIPFQQ (SEQ ID NO: 136), 1 mM Peptide, 1 μM enzyme, 10 mM Mg(OAc)2, 50 mM MOPS pH 8, 60 mM KOAc, RT/0.5 hr
  HPLC Assay Conv: 100%
Substrate KKMKKM{LYSN3}NH2 (SEQ ID NO: 89), 1 mM peptide, 2 mM enzyme, 2.5 mM ZnCl2, 25 mM Tris pH 8.0, 30° C./1 hr
  HPLC Assay Conv: 100%
Substrate KKPFQQ (SEQ ID NO: 120), 1 mM Peptide, 1 μM enzyme, 10 mM Mg(OAc)2, 50 mM MOPS pH 8, 60 mM KOAc, RT/0.5 hr
  HPLC Assay Conv: 32%
Substrate KKPKKP{LYSN3}NH2 (SEQ ID NO: 100), 1 mM peptide, 2 mM enzyme, 2.5 mM ZnCl2, 25 mM Tris pH 8.0, 30° C./1 hr
  HPLC Assay Conv: 100%
Substrate LLPFQQ (SEQ ID NO: 138), 1 mM Peptide, 1 μM enzyme, 10 mM Mg(OAc)2, 50 mM MOPS pH 8, 60 mM KOAc, RT/0.5 hr
  HPLC Assay Conv: 100%
Substrate MMPFQQ (SEQ ID NO: 148), 1 mM Peptide, 1 μM enzyme, 10 mM Mg(OAc)2, 50 mM MOPS pH 8, 60 mM KOAc, RT/0.5 hr
  HPLC Assay Conv: 100%
Substrate NNPFQQ (SEQ ID NO: 130), 1 mM Peptide, 1 μM enzyme, 10 mM Mg(OAc)2, 50 mM MOPS pH 8, 60 mM KOAc, RT/0.5 hr
  HPLC Assay Conv: 15%
Substrate PPPFQQ (SEQ ID NO: 150), 1 mM Peptide, 1 μM enzyme, 10 mM Mg(OAc)2, 50 mM MOPS pH 8, 60 mM KOAc, RT/0.5 hr
  HPLC Assay Conv: 0%
Substrate QP5-Atto649N ([…]{LYSN3}NH2) (SEQ ID NO: 106), 37 μM Peptide, 8 μM Enzyme, 2.5 mM ZnCl2, 25 mM Tris pH 8.0, 37° C./0.5 hr
  HPLC Assay Conv: 100%
Substrate QP15 […]{LYSN3}NH2 (SEQ ID NO: 107), 1200 μM Peptide, 0.008 μM enzyme, 10 mM Mg(OAc)2, 50 mM MOPS pH 5.5, RT/0.5 hr
  HPLC Assay Conv: 1.40%
Substrate QP15 […]{LYSN3}NH2 (SEQ ID NO: 107), 1200 μM Peptide, 0.008 μM enzyme, 10 mM Mg(OAc)2, 50 mM MOPS pH 6.5, RT/0.5 hr
  HPLC Assay Conv: 56%
Substrate QQPFQQ (SEQ ID NO: 132), 1 mM Peptide, 1 μM enzyme, 10 mM Mg(OAc)2, 50 mM MOPS pH 8, 60 mM KOAc, RT/0.5 hr
  HPLC Assay Conv: 66%
Substrate RRPFQQ (SEQ ID NO: 116), 1 mM Peptide, 1 μM enzyme, 10 mM Mg(OAc)2, 50 mM MOPS pH 8, 60 mM KOAc, RT/0.5 hr
  HPLC Assay Conv: 79%
Substrate RRPRRP{LYSN3}NH2 (SEQ ID NO: 96), 1 mM peptide, 2 mM enzyme, 2.5 mM ZnCl2, 25 mM Tris pH 8.0, 30° C./1 hr
  HPLC Assay Conv: 100%
Substrate SSPFQQ (SEQ ID NO: 140), 1 mM Peptide, 1 μM enzyme, 10 mM Mg(OAc)2, 50 mM MOPS pH 8, 60 mM KOAc, RT/0.5 hr
  HPLC Assay Conv: 48%
Substrate TTPFQQ (SEQ ID NO: 142), 1 mM Peptide, 1 μM enzyme, 10 mM Mg(OAc)2, 50 mM MOPS pH 8, 60 mM KOAc, RT/0.5 hr
  HPLC Assay Conv: 100%
Substrate VVPFQQ (SEQ ID NO: 134), 1 mM Peptide, 1 μM enzyme, 10 mM Mg(OAc)2, 50 mM MOPS pH 8, 60 mM KOAc, RT/0.5 hr
  HPLC Assay Conv: 100%
Substrate WWPFQQ (SEQ ID NO: 146), 1 mM Peptide, 1 μM enzyme, 10 mM Mg(OAc)2, 50 mM MOPS pH 8, 60 mM KOAc, RT/0.5 hr
  HPLC Assay Conv: 82%
Substrate YYMYYM{LYSN3}NH2 (SEQ ID NO: 103), 1 mM peptide, 2 mM enzyme, 2.5 mM ZnCl2, 25 mM Tris pH 8.0, 30° C./1 hr
  HPLC Assay Conv: >90%
Substrate YYPFQQ (SEQ ID NO: 122), 1 mM Peptide, 1 μM enzyme, 10 mM Mg(OAc)2, 50 mM MOPS pH 8, 60 mM KOAc, RT/0.5 hr
  HPLC Assay Conv: 56%
Substrate YYPYYP{LYSN3}NH2 (SEQ ID NO: 92), 1 mM peptide, 2 mM enzyme, 2.5 mM ZnCl2, 25 mM Tris pH 8.0, 30° C./1 hr
  HPLC Assay Conv: 50%
